Details in all cases: protein: recombinant; label: fluorescein-dT at T8; single-chain dumbbell, 18 bp with central nick, two tetraloops
Series [1] concerns the target T1, PARP-1 F1+F2 (24-kDa DBD) (Homo sapiens, UniProt P09874 1-214). Description: fluorescence anisotropy; 25; 50 mM Tris-HCl pH 7.0, 150 uM ZnSO4, 4 mM DTT, 25 C; NaCl 0-200 mM (T2, as in cof; 10 nM DNA) or 25 mM (T3 mutants; 25 nM DNA). (In general: In fluorescence polarisation assays a small probe gives low polarisation when free and higher when bound to something large.)

For series [2], the target named is T2, PARP-1 F2 (Homo sapiens, UniProt P09874 103-214). Description: fluorescence anisotropy; 50; 50 mM Tris-HCl pH 7.0, 150 uM ZnSO4, 4 mM DTT, 25 C; NaCl 0-200 mM (T2, as in cof; 10 nM DNA) or 25 mM (T3 mutants; 25 nM DNA).
Series [3] concerns the target T1, PARP-1 F1+F2 (24-kDa DBD). The description is as above.
Series [4] has as its target T2, PARP-1 F2. Description: fluorescence anisotropy; 75; 50 mM Tris-HCl pH 7.0, 150 uM ZnSO4, 4 mM DTT, 25 C; NaCl 0-200 mM (T2, as in cof; 10 nM DNA) or 25 mM (T3 mutants; 25 nM DNA).
Series [5] concerns the target T1, PARP-1 F1+F2 (24-kDa DBD). Described as above.
Series [6] has as its target T1, PARP-1 F1+F2 (24-kDa DBD). Description: fluorescence anisotropy; 150; 50 mM Tris-HCl pH 7.0, 150 uM ZnSO4, 4 mM DTT, 25 C; NaCl 0-200 mM (T2, as in cof; 10 nM DNA) or 25 mM (T3 mutants; 25 nM DNA).
The target in series [7] is T1, PARP-1 F1+F2 (24-kDa DBD). Description: fluorescence anisotropy; 200; 50 mM Tris-HCl pH 7.0, 150 uM ZnSO4, 4 mM DTT, 25 C; NaCl 0-200 mM (T2, as in cof; 10 nM DNA) or 25 mM (T3 mutants; 25 nM DNA).
The target of series [8] is T2, PARP-1 F2. Description: fluorescence anisotropy; 25 mM NaCl, one-site fit; 50 mM Tris-HCl pH 7.0, 150 uM ZnSO4, 4 mM DTT, 25 C; NaCl 0-200 mM (T2, as in cof; 10 nM DNA) or 25 mM (T3 mutants; 25 nM DNA).
The target of the next series is PARP-1 F2 K197I (Homo sapiens, UniProt P09874 103-214, K197I). The description is as above.
Another series addresses PARP-1 F2 W157I (Homo sapiens, UniProt P09874 103-214, W157I). The description is as above.
For series [9], the target named is T1, PARP-1 F1+F2 (24-kDa DBD). Description: fluorescence anisotropy; 0 mM NaCl; tight site (KD1); FA: 50 mM Tris-HCl pH 7, 150 uM ZnSO4, 4 mM DTT, 0-200 mM NaCl, 25 C, 10 nM DNA (mutants 25 nM DNA, 25 mM NaCl); EMSA: 50 mM Tris-HCl pH 7.4, 150 uM ZnSO4, 4 mM DTT, 10% glycerol, RT incubation, gel at 4 C; NMR complexes: 50 mM Tris pH 7.0, 150 uM ZnSO4, 4 mM DTT, 37 C.

The next series addresses PARP-1 F2 K141I/K142I (Homo sapiens, UniProt P09874 103-214, K141I;K142I). Description: fluorescence anisotropy; 25 mM NaCl; apparent, one-site model; FA: 50 mM Tris-HCl pH 7, 150 uM ZnSO4, 4 mM DTT, 0-200 mM NaCl, 25 C, 10 nM DNA (mutants 25 nM DNA, 25 mM NaCl); EMSA: 50 mM Tris-HCl pH 7.4, 150 uM ZnSO4, 4 mM DTT, 10% glycerol, RT incubation, gel at 4 C; NMR complexes: 50 mM Tris pH 7.0, 150 uM ZnSO4, 4 mM DTT, 37 C.

T2 sequence (P09874 103-214): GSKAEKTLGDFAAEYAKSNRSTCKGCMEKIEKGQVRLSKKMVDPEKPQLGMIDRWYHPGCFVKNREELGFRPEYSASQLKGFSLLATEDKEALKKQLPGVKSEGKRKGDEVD
T1 sequence (P09874 1-214): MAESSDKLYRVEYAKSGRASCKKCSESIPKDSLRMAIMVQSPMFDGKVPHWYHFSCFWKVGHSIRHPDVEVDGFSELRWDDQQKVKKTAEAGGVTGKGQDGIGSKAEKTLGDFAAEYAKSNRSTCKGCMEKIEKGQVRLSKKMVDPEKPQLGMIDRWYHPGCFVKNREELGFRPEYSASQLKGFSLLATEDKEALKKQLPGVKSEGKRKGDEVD
PARP-1 F2 W157I, sequence (P09874 103-214 W157I): as the sequence (P09874 103-214) above, with W55I counted along it
PARP-1 F2 K197I, sequence (P09874 103-214 K197I): as the sequence (P09874 103-214) above, with K95I counted along it
PARP-1 F2 K141I/K142I, sequence (P09874 103-214 K141I/K142I): as the sequence (P09874 103-214) above, with K39I, K40I counted along it

B1: 44-nt nicked dumbbell, 5'-phosphate, fluorescein-dT (structured_DNA)
DNA: CGGTCGATCGTAAGATCGACCGGCGCTGGAGCTTGCTCCAGCGC
modifications: 5'-phosphate
Take B1: the Kd stood at 20.4 nM in series [1]; 130 nM with PARP-1 F2 [2]; 8.02 nM in [3]; 218 nM with PARP-1 F2 [4]; 37 nM in [5]; 24.6 nM in [6]. Besides, the Kd in [7] was determined as 45.4 nM; in the series with PARP-1 F2 [8], 343 nM; with PARP-1 F2 K197I, 664 nM; with PARP-1 F2 W157I, 4930 nM; in series [9], 5.7 nM; in the series with PARP-1 F2 K141I/K142I, 3930 nM.

Source of the values: PMC3094755, “The DNA-Binding Domain of Human PARP-1 Interacts with DNA Single-Strand Breaks as a Monomer through Its Second Zinc Finger”.
